Reference: patent publication US20050123549A1

Experiments:
[1] = molecular target: Muc1 on DS6 negative & CM1 positive cell lines (KLE, OVCAR3, SKOV3), without the CA6 epitope (human) (UniProt P15941); test: flow cytometry on OVCAR3 cells
[2] = molecular target: Muc1 on DS6 negative & CM1 positive cell lines (KLE, OVCAR3, SKOV3), without the CA6 epitope (human) (UniProt P15941); test: flow cytometry on KLE cells, apparent Kd
[3] = molecular target: Muc1 mucin carrying the CA6 sialoglycotope (human) (UniProt P15941); test: flow cytometry on KB cells
[4] = molecular target: Muc1 mucin carrying the CA6 sialoglycotope (human) (UniProt P15941); test: flow cytometry on HeLa cells
[5] = molecular target: Muc1 mucin carrying the CA6 sialoglycotope (human) (UniProt P15941); test: flow cytometry on CaOV3 cells, apparent Kd
[6] = molecular target: Muc1 on DS6 negative & CM1 positive cell lines (KLE, OVCAR3, SKOV3), without the CA6 epitope (human) (UniProt P15941); test: flow cytometry on SKOV3 cells
[7] = molecular target: Muc1 mucin carrying the CA6 sialoglycotope (human) (UniProt P15941); test: flow cytometry on KB cells, apparent Kd
[8] = molecular target: Muc1 mucin carrying the CA6 sialoglycotope (human) (UniProt P15941); test: flow cytometry on MCF7 cells
[9] = molecular target: Muc1 on DS6 negative & CM1 positive cell lines (KLE, OVCAR3, SKOV3), without the CA6 epitope (human) (UniProt P15941); test: flow cytometry on OVCAR3 cells, apparent Kd
[10] = molecular target: Muc1 on DS6 negative & CM1 positive cell lines (KLE, OVCAR3, SKOV3), without the CA6 epitope (human) (UniProt P15941); test: flow cytometry on SKOV3 cells, apparent Kd
[11] = molecular target: Muc1 mucin carrying the CA6 sialoglycotope (human) (UniProt P15941); test: flow cytometry on HeLa cells, apparent Kd
[12] = molecular target: Muc1 mucin carrying the CA6 sialoglycotope (human) (UniProt P15941); test: flow cytometry on CaOV3 cells
[13] = molecular target: Muc1 mucin carrying the CA6 sialoglycotope (human) (UniProt P15941); test: flow cytometry on BT549 cells, apparent Kd
[14] = molecular target: Muc1 on DS6 negative & CM1 positive cell lines (KLE, OVCAR3, SKOV3), without the CA6 epitope (human) (UniProt P15941); test: flow cytometry on KLE cells
[15] = molecular target: Muc1 mucin carrying the CA6 sialoglycotope (human) (UniProt P15941); test: flow cytometry on MCF7 cells, apparent Kd
[16] = molecular target: Muc1 mucin carrying the CA6 sialoglycotope (human) (UniProt P15941); test: flow cytometry on BT549 cells

CM1 antibody (Muc1 VNTR antibody)
MMF (maximum mean relative fluorescence) [1]: 192
Kd [2]: 8.16 nM
MMF (maximum mean relative fluorescence) [3]: 338
MMF (maximum mean relative fluorescence) [4]: 335
Kd [5]: 7.48 nM
MMF (maximum mean relative fluorescence) [6]: 49.4
Kd [7]: 5.34 nM
MMF (maximum mean relative fluorescence) [8]: 1020
Kd [9]: 5.95 nM
Kd [10]: 6.25 nM
Kd [11]: 2.91 nM
MMF (maximum mean relative fluorescence) [12]: 1030
Kd [13]: 6.06 nM
MMF (maximum mean relative fluorescence) [14]: 562
Kd [15]: 8.69 nM
MMF (maximum mean relative fluorescence) [16]: 188
